Measurements: publication PMC6599006, “Rational design using sequence information only produces a peptide that binds to the intrinsically disordered region of p53” (Scientific Reports, 2019)

Tests used:
Assay in all cases: fluorescence anisotropy
Settings in all cases: 2 mM Mg2+, 20 mM HEPES pH 7.9, 100 mM KCl, 2 mM MgCl2, 0.5 mM EDTA, 1 mM DTT, 0.2 mg/mL BSA, 5 nM 6-FAM-DNA, 25 C
[1] = tested on: FL-p53 (thermostable, cysteine-modified mutant) (human)
[2] = tested on: TetCT mutant (human)
[3] = tested on: CoreTet mutant (human)

Row | Substance | Kd ([1]; 75 uM DP6) | Kd ([1]; 150 uM DP6) | Kd ([1]; 300 uM DP5) | Kd ([1]; 300 uM DP6) | Kd ([1]; 450 uM DP6) | Kd ([1]; 600 uM DP5) | Kd ([1]; 600 uM DP6) | Kd ([1]; no DP5 (DP5 series)) | Kd ([1]; no DP6) | Kd ([2]; 75 uM DP6) | Kd ([2]; no DP6) | Kd ([3]; 600 uM DP6) | Kd ([3]; no DP6)
1 | nspDNA (random sequence) | 32 nM | 57 nM | 55 nM | 90 nM | 130 nM | 61 nM | 160 nM | 49 nM | 24 nM | 340 nM | 110 nM |  | 
2 | spDNA (p21) | 9.2 nM | 12 nM | 8.5 nM | 20 nM | 22 nM | 5.3 nM | 21 nM | 6.6 nM | 7.2 nM |  |  | 13 nM | 19 nM
